The values below come from patent publication US20230241258A1 (Bristol-Myers Squibb, published 2023).

The target of experiment [1] is T1, human PD-L1 (human, UniProt Q9NZQ7 19-290).
T1 construct: whole, on cells; PD-L1-negative HT-29 cells served as the negative comparison; also called hPD-L1; B7-H1
The experiment is described as follows: radioligand cell binding on ice for 1 hour, gamma counter. How it is done:
After the incubation period, cell samples were centrifuged at 200×g and the supernatant was discarded. Cell pellets were resuspended in 1 mL PBS+0.5% BSA and the wash procedure repeated for a total of 3 washes. Following the final wash, cells were again centrifuged at 200×g and the supernatant was discarded. The radioactivity of the remaining cell pellets was then measured by gamma counter.

Experiment [2] addresses T1, human PD-L1. The experiment is described as follows: cell-based or functional assay.
Experiment [3] has as its target T1, human PD-L1. Briefly: competition autoradiography on frozen tissue sections; unlabeled A02 at 0.025, 0.25, 2.5 and 25 nM displaces 0.25 nM 18F-DBCO-A02 radioligand.

B1: [^18F]-E01-4PEG-DBCO-FPPEGA (designed binder)
chain: GVSDVPRDLEVVAATPTSLLISWRAQLSPSFYYRITYGETGGNSPVQEFTVPNDVMTATISGLKPGVDYTITVYAVTTHGVYFYSPISINYRTPC
modifications: C-terminal cysteine thiol linked to Maleimide-PEG4-DBCO, which is clicked to [^18F]-FPPEGA (^18F prosthetic group)
notes: also called ^18F-radiolabeled E01-4PEG-DBCO; ^18F-E01 adnectin radiotracer
On to B1, for which the “fold cell associated radioactivity, PD-L1-positive L2987 cells over PD-L1-negative HT-29 cells” value with human PD-L1 [1] was 44.6 fold.

B2: [^18F]-radiolabeled-A02-PEG-DBCO-FPPEGA (designed binder)
chain: EVVAATPTSLLISWSYDGPIDRYYRITYGETGGNSPVQEFTVPPDQKTATISGLKPGVDYTITVYAVRLEEAHYNREFPISINYRTPC
modifications: C-terminal cysteine linked to Maleimide-PEG4-DBCO and clicked to [^18F]-FPPEGA (produced as described in Example 9)
On to B2, for which, in the experiment with human PD-L1 [2], the “maximum radiotracer uptake ratio, hPD-L1(+) L2987 vs. hPD-L1(-) HT-29 xenografts” value came to 3.53 ratio; the “radiotracer uptake in PD-L1(+) L2987 xenografts relative to PD-L1(-) HT-29 xenografts, PET in mice, co-injected with 3 mg/kg unlabeled A02 Adnectin” value was 1.04 fold; the “radiotracer uptake in PD-L1(+) L2987 xenografts relative to PD-L1(-) HT-29 xenografts, PET in mice, final 10 minutes of the time-activity curve” value was determined as 3.05 fold.

B3: A02 Adnectin, cold (unlabeled) (designed binder)
chain: EVVAATPTSLLISWSYDGPIDRYYRITYGETGGNSPVQEFTVPPDQKTATISGLKPGVDYTITVYAVRLEEAHYNREFPISINYRTPC
notes: also called unlabeled anti-PD-L1 A02 adnectin
For the molecule B3, the binding result with human PD-L1 [3] is recorded as “binds”.
